Reference: patent publication US20170306033A1 (Amgen, published 2017)
Substitutions are numbered along the chain they refer to.

T1: human PAC1 receptor (human, UniProt P41586 21-468)
T1 sequence: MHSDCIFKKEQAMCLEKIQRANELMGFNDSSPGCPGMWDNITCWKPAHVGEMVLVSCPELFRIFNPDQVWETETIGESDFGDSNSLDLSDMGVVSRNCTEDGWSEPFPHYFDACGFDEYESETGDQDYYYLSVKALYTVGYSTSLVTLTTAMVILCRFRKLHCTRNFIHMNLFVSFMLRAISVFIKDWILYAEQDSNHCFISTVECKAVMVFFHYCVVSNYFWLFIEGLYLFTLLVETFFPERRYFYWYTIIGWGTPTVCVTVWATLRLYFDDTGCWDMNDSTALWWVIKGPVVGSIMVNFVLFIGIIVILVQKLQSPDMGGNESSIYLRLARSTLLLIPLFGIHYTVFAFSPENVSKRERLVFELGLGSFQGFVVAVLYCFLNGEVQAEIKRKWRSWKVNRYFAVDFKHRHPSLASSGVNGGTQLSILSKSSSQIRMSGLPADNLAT

B1: iPS:327281 (bispecific antibody, human IgG1, kappa, lambda, N297G)
light 1: not shown
heavy 1: not shown
light 2: QSVLTQPPSVSAAPGQKVTISCSGSSSNIGNNYVSWYQQLPGTAPKLLIYDNNKRPSGIPDRFSGSKSGTSTTLGITGLQTGDEADYYCGTWDSRLSAVVFGGGTKLTVLGQPKANPTVTLFPPSSEELQANKATLVCLISDFYPGAVTVAWKADGSPVKAGVETTKPSKQSNNKYAAKSYLSLTPEQWKSHRSYSCQVTHEGSTVEKTVAPTECS
heavy 2: QVQLVESGGGVVQPGRSLRLSCAASGFTFSSFGMHWVRQAPGKGLEWVAVISFDGSIKYSVDSVKGRFTISRDNSKNTLFLQMNSLRAEDTAVYYCARDRLNYYDSSGYYHYKYYGMAVWGQGTTVTVSSASTKGPSVFPLAPSSKSTSGGTAALGCLVKDYFPEPVTVSWNSGALTSGVHTFPAVLQSSGLYSLESVVTVPSSSLGTQTYICNVNHKPSNTKVDKKVEPKSCDKTHTCPPCPAPELLGGPSVFLFPPKPKDTLMISRTPEVTCVVVDVSHEDPEVKFNWYVDGVEVHNAKTKPCEEQYGSTYRCVSVLTVLHQDWLNGKEYKCKVSNKALPAPIEKTISKAKGQPREPQVYTLPPSRKEMTKNQVSLTCLVKGFYPSDIAVEWESNGQPENNYKTTPPVLKSDGSFFLYSKLTVDKSRWQQGNVFSCSVMHEALHNHYTQKSLSLSPGK
B2: iPS:327288 (bispecific antibody, human IgG1, kappa, lambda, N297G)
light 1: not shown
heavy 1: not shown
light 2: B1 light 2
heavy 2: B1 heavy 2 with E370K
B3: iPS:327290 (bispecific antibody, human IgG1, kappa, lambda, N297G)
light 1: DIQLTQSPSFLSASVGDRVTITCRASQSIGRSLHWYQQKPGKAPKLLIKYASQSLSGVPSRFSGSGSGTEFTLTISSLQPEDFATYYCHQSSRLPFTFGPGTKVDIKRTVAAPSVFIFPPSDEQLKSGTASVVCLLNNFYPREAKVQWKVDNALQSGNSQESVTEQDSKDSTYSLESTLTLSKADYEKHKVYACEVTHQGLSSPVTKSFNRGEC
heavy 1: not shown
light 2: B1 light 2
heavy 2: B1 heavy 2 with E370K
B4: iPS:327289 (bispecific antibody, human IgG1, kappa, lambda, N297G)
light 1: not shown
heavy 1: not shown
light 2: B1 light 2
heavy 2: B1 heavy 2 with E370K
B5: iPS:327287 (bispecific antibody, human IgG1, kappa, lambda, N297G)
light 1: EIVLTQSPATLSLSPGERATLSCRASQSVGRSLHWYQQKPGQAPRLLIKYASQSLSGIPARFSGSGSGTDFTLTISSLEPEDFAVYYCHQSSRLPFTFGEGTKVDIKRTVAAPSVFIFPPSDEQLKSGTASVVCLLNNFYPREAKVQWKVDNALQSGNSQESVTEQDSKDSTYSLESTLTLSKADYEKHKVYACEVTHQGLSSPVTKSFNRGEC
heavy 1: not shown
light 2: B1 light 2 with G103K
heavy 2: B1 heavy 2 with G44E
B6: iPS:326631 (bispecific antibody, human IgG2, kappa, lambda)
light 1: not shown
heavy 1: QVQLQQSGPGLVKPSQTLSLTCAISGDSVSSNSATWNWIRQSPSRGLEWLGRTYYRSKWSNHYAVSVKSRITINPDTSKSQFSLQLNSVTPEDTAVYYCARGTWKQLWFLDHWGQGTLVTVSSASTKGPSVFPLAPCSRSTSESTAALGCLVKDYFPEPVTVSWNSGALTSGVHTFPAVLQSSGLYSLKSVVTVPSSNFGTQTYTCNVDHKPSNTKVDKTVERKCCVECPPCPAPPVAGPSVFLFPPKPKDTLMISRTPEVTCVVVDVSHEDPEVQFNWYVDGVEVHNAKTKPREEQFNSTFRVVSVLTVVHQDWLNGKEYKCKVSNKGLPAPIEKTISKTKGQPREPQVYTLPPSREEMTKNQVSLTCLVDGFYPSDIAVEWESNGQPENNYDTTPPMLDSDGSFFLYSDLTVDKSRWQQGNVFSCSVMHEALHNHYTQKSLSLSPGK
light 2: not shown
heavy 2: not shown
B7: iPS:327679 (bispecific antibody, human IgG1, kappa, N297G)
light 1: B3 light 1
heavy 1: not shown
light 2: EIVLTQSPGTLSLSPGERATLSCRASQSVSSGYLTWYQQKPGQAPRLLIYGASSRATGIPDRFSGSGSGTDFTLTISRLEPEDFAVYYCQQYGNSLSRFGQGTKLEIKRTVAAPSVFIFPPSDEQLKSGTASVVCLLNNFYPREAKVQWKVDNALQSGNSQESVTEQDSKDSTYSLKSTLTLSKADYEKHKVYACEVTHQGLSSPVTKSFNRGEC
heavy 2: not shown
B8: iPS:327681 (bispecific antibody, human IgG1, kappa, N297G)
light 1: DIQMTQSPSSLSASVGDRITITCRASQSISRYLNWYQQKPGKAPKLLIYAASSLQSGIPSRFSGSGSGTDFTLTINSLQPEDFATYFCQQSYSPPFTFGEGTKVDIKRTVAAPSVFIFPPSDEQLKSGTASVVCLLNNFYPREAKVQWKVDNALQSGNSQESVTEQDSKDSTYSLESTLTLSKADYEKHKVYACEVTHQGLSSPVTKSFNRGEC
heavy 1: not shown
light 2: B7 light 2 with Q101K
heavy 2: QVQLVESGGGVVQPGRSLRLSCAASGFTFSSYGMHWVRQAPGKELEWVAVIWYDGSNKYYAESVKGRFIISRDKSKNTLYLQMNSLRAEDTAVYYCARAGGIAAAGLYYYYGMDVWGQGTTVTVSSASTKGPSVFPLAPSSKSTSGGTAALGCLVKDYFPEPVTVSWNSGALTSGVHTFPAVLQSSGLYSLESVVTVPSSSLGTQTYICNVNHKPSNTKVDKKVEPKSCDKTHTCPPCPAPELLGGPSVFLFPPKPKDTLMISRTPEVTCVVVDVSHEDPEVKFNWYVDGVEVHNAKTKPCEEQYGSTYRCVSVLTVLHQDWLNGKEYKCKVSNKALPAPIEKTISKAKGQPREPQVYTLPPSRKEMTKNQVSLTCLVKGFYPSDIAVEWESNGQPENNYKTTPPVLKSDGSFFLYSKLTVDKSRWQQGNVFSCSVMHEALHNHYTQKSLSLSPGK
B9: iPS:327680 (bispecific antibody, human IgG1, kappa, N297G)
light 1: B5 light 1 with E100P
heavy 1: not shown
light 2: B7 light 2
heavy 2: not shown

What was measured:
human PAC1 receptor = target: T1, human PAC1 receptor; assay: cell-based or functional assay
human CGRP receptor = human CGRP receptor (human, UniProt Q16602 23-461; O60894 27-148); assay: cell-based or functional assay
Chain of human CGRP receptor (Q16602 23-461 limits assumed, chain 1 of 2): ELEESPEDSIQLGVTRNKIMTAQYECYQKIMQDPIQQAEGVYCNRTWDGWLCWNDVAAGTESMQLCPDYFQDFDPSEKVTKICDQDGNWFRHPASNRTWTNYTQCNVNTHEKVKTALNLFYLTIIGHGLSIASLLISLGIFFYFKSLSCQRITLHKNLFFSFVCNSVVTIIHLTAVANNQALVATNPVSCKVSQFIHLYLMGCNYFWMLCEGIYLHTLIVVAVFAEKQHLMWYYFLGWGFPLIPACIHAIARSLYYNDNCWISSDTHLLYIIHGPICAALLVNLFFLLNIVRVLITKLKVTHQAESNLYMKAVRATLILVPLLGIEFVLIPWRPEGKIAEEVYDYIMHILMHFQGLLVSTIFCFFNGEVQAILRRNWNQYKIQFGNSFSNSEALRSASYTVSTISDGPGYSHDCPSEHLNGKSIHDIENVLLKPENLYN
Chain of human CGRP receptor (O60894 27-148 limits assumed, chain 2 of 2): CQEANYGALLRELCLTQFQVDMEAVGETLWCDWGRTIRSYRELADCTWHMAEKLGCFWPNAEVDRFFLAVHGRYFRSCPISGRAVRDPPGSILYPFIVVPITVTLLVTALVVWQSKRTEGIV

Binder	% inhibition of human PAC1 (human PAC1 receptor)	% inhibition of human CGRPR (human CGRP receptor)
B1	50%	82%
B2	88%	67%
B3	60%	70%
B4	75%	72%
B5	71%	86%
B6	79%	89%
B7	23%	86%
B8	73%	72%
B9	92%	88%
